Experiments:
PARP-16 = molecular target: T1, PARP-16 (Homo sapiens, UniProt Q8N5Y8); experiment: 32P-NAD+ incorporation assay with recombinant GST-PARP-16 (self-modification); assay type: biochemical; conditions: of wild-type GST-PARP-16; purified from E. coli
T1 construct: Asterisk=full-length proteins; made in house; host or cells: E. coli BL21 RIPL
T1 sequence (Q8N5Y8 1-322): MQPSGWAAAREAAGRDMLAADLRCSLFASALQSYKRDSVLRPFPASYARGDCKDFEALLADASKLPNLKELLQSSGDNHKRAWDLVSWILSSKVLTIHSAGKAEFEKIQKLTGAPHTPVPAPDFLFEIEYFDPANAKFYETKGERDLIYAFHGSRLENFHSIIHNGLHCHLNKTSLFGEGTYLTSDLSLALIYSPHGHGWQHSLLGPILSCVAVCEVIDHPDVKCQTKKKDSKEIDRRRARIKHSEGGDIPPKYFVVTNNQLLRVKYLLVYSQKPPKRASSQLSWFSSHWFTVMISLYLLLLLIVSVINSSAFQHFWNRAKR
Source text: Human PARP-16 (ADP-ribosyl)ates itself and contains histidine and tyrosine residues at amino acid 152 and 182 within its catalytic domain, residues thought to be critical for enzymatic activity (FIG. 1B) (Kleine et al., Mol. Cell 32: 57-69, 2008). To determine if these residues are required for enzymatic activity, GST-PARP-16 and GST-PARP-16^H152Q Y182A were expressed and purified in E. coli, and ^32P-NAD^+ incorporation assays performed.
(§1) For ER microsome-based assays including NAD^+ incorporation and immunoprecipitation, ER microsomes were fractionated from HeLa cells via isopycnic flotation method as described in Stephens et al., Methods Mol Biol. 419: 197-214, 2008, and incubated with 100 μM β-NAD^+ (MP Biomedicals) and 2.5 μCi of ^32P-NAD^+ (Perkin Elmer) in a PARP reaction buffer (50 mM HEPES pH 7.4, 150 mM NaCl, 1 mM MgCl2, 10 mM EGTA, 1 mM DTT, 0.1 mM Na3VO4, 50 mM NaF, 5 mM β-glycerophosphate, 1 μM ADP-HPD, and protease inhibitor cocktail) at 25° C. for 30 min. The ratio between unlabeled and labeled NAD^+ was kept constant upon titration of NAD^+ concentration. The ^32P-labeled ER microsomes were then lysed by addition of Triton X-100 at 1%. Proteins were immunoprecipitated, eluted in a 1× Laemmli sample buffer by boiling at 65° C. for 10 min, and then analyzed using autoradiogram and immunoblotting. […]

PERK = experiment: NAD+ incorporation assay with ER microsome-purified PERK and recombinant GST-PARP-16; assay type: biochemical, human; conditions: PERK purified from ER microsomes of unstressed PARP-16 knockdown cells
Source text: We examined NAD^+ incorporation onto GFP-PERK or GFP-IRE1α via EMAA in cells transfected with control or PARP-16 siRNA, treated with or without ER stress inducing drugs. Low level (ADP-ribosyl)ation of GFP-PERK and GFP-IRE1α was detected in control knock-down cells in the absence of drug (FIGS. 6C and 6D), likely due to the previously described UPR induction upon PERK or IRE1α expression (Bertolotti et al., Nat. Cell Biol. 2: 326-332, 2000; Kimata et al., Curr. Opin. Cell Biol. 23: 135-142, 2011).
as §1

GFP-PERK = experiment: PERK kinase assay after (ADP-ribosyl)ation of ER microsomes by GST-PARP-16; assay type: biochemical, human; conditions: versus GST-PARP-16 samples; depending on NAD concentration
Procedure: We examined PERK and IRE1α kinase activity in response to (ADP-ribosyl)ation by PARP-16 via self-phosphorylation assays. ER microsomes purified from GFP-PERK- or GFP-IRE1α-expressing cells were washed with 1M NaCl to remove bound PARP-16, returned to physiological salt buffer, split into duplicate reactions, and incubated with unlabeled NAD^+ plus either GST-PARP-16 or GST-PARP-16^H152Q Y182A, or ^32P-NAD^+ plus either recombinant protein. (ADP-ribosyl)ated GFP-PERK or GFP-IRE1α were extracted from the microsomes and purified under 1 M NaCl conditions to remove added recombinant PARP-16 proteins. Reactions containing unlabeled NAD^+ were incubated with ^32P-ATP, and reactions containing ^32P-NAD^+ were incubated with unlabeled ATP. […] Phosphorylation by GFP-IRE1α at the molecular weight of GST-PARP-16 and GST-PARP16^H152Q Y182A was also detected (FIG. 7E).
PERK and IRE1α kinase assays were performed as described herein. […] Proteins were immunoprecipitated, eluted in 1× Laemmli sample buffer by heating at 65° C. for 10 min, and then analyzed using autoradiogram and immunoblotting.

32P-NAD+ incorporation activity relative to wild-type (PARP-16): ~6%
reduction of phosphorylation by PERK at the molecular weight of GST-PARP-16 (GFP-PERK): 5-10 fold
B1: GST-PARP-16^H152Q Y182A: recombinant GST-PARP-16 catalytically inactive mutant, His152 and Tyr182 mutated, purified in E. coli (protein, UniProt Q8N5Y8 1-322, looked up, variant H152Q Y182A)
Protein …: MQPSGWAAAREAAGRDMLAADLRCSLFASALQSYKRDSVLRPFPASYARGDCKDFEALLADASKLPNLKELLQSSGDNHKRAWDLVSWILSSKVLTIHSAGKAEFEKIQKLTGAPHTPVPAPDFLFEIEYFDPANAKFYETKGERDLIYAFQGSRLENFHSIIHNGLHCHLNKTSLFGEGTALTSDLSLALIYSPHGHGWQHSLLGPILSCVAVCEVIDHPDVKCQTKKKDSKEIDRRRARIKHSEGGDIPPKYFVVTNNQLLRVKYLLVYSQKPPKRASSQLSWFSSHWFTVMISLYLLLLLIVSVINSSAFQHFWNRAKR
modifications: GST fusion
ADP-ribosylation of PERK (PERK): not
